Measured values as given in doi:10.1101/2023.12.05.570191 (bioRxiv, 2023).

Target: the molecule itself
Assay: FRET or BRET

B1: Cy5-labelled metallated Zur (Zur^Cy5, Cy5 at C113) (natural protein, E. coli)
chain: MEKTTTQELLAQAEKISAQRNVRLTPQRLEVLRLMSLQDGAISAYDLLDLLREAEPQAKPPTVYRALDFLLEQGFVHKVESTNSYVLCHLFDQPTHTSAMFICDRCGAVKEECAEGVEDIMHTLAAKMGFALRHNVIEAHGLCAACVEVEASRHPEQSQHDHSVQVKKKPR
modifications: Cy5 (maleimide chemistry) at C113 of one monomer of the dimer
B1: binds.
